Where no end group is shown, it is not given here.
B1: lissamine-YQSKL (peptide)
peptide: {lissamine rhodamine B sulfonyl}-YQSKL
notes: model PTS1 pentapeptide; also called lissamine-labelled YQSKL; model PTS1 peptide; source: synthetic peptide (Fmoc solid-phase synthesis, reverse phase HPLC)
B2: lissamine-YQSYY (peptide)
peptide: {lissamine rhodamine B sulfonyl}-YQSYY
notes: pentapeptide found in the YQSXX library screen; also called lissamine-labelled YQSYY; source: synthetic peptide (Fmoc solid-phase synthesis, reverse phase HPLC)

Assays:
[1] = target: lissamine-YQSYY; assay: fluorescence polarisation; fluorescence anisotropy; AtPEX5C or variant serially diluted (from a 40 µM solution) against 100 nM lissamine-labelled peptide tracer; 20 mM HEPES, 150 mM NaCl, pH 7.5; gelatine-blocked 384-well plates; 25 °C, 20 min; fitted to a 1:1 binding model
[2] = target: endogenous PhypaPEX5 (Physcomitrella patens (endogenous in P. patens cells))
[3] = target: T1, wild-type AtPEX5C (Arabidopsis thaliana, UniProt Q9FMA3); assay: Pull down of binding peptides (Co-NTA, LC-MS), wild-type AtPEX5C; details: […] protein, 500 nM each peptide, pH 8.0, 4 °C, 1 h, semi-quantitative
T1 construct: made in house; host or cells: E. coli BL21-Gold (DE3)
T1 sequence (Q9FMA3 340-728): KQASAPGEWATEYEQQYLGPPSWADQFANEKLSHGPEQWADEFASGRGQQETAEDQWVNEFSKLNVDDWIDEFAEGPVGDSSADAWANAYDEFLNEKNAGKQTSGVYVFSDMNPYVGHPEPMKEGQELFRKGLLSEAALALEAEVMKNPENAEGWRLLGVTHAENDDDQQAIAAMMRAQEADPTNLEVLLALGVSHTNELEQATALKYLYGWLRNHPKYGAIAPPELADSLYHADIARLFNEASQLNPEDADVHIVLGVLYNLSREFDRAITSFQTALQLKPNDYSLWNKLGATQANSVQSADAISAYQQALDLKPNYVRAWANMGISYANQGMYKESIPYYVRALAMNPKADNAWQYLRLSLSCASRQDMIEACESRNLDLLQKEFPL
From the text: (§1) The chemical space that can be covered by all possible variants of the receptor and signal sequence is vast (e.g., combined randomization of the two C-terminal PTS1 residues and just six residues within AtPEX5C would result in a library size of 2.6 × 10^10 variants of peptide and protein), which makes the development of an assay for a PEX5*-PTS1* pair problematic. We reduced the dimensionality of this search by designing modifications to the PEX5 component and rapidly surveying which peptide sequences could be bound by each mutated receptor (Fig. 1a). Site-directed variants of a His6-tagged A. thaliana PEX5 PTS1-binding domain (residues 340–728, AtPEX5C)[16], selected by analysis of known crystal structures, were expressed in Escherichia coli. The purified proteins were incubated with a library of pentapeptides, representing known PTS1 and putative PTS1* sequences. After capture of the receptor-peptide complexes on cobalt affinity resin, the bound peptides were eluted and identified by liquid chromatography-mass spectrometry (LC-MS) analysis. […]
(§2) Each peptide sub-library was analyzed using the LC-MS method listed above and an identical chromatographic run in which the mass spectrometer provided automated MS/MS data, using collisional induced fragmentation in the quadrupole. […]

[4] = target: T2, AtPEX5C D505H (Arabidopsis thaliana, UniProt Q9FMA3, D505H); assay: Pull down of binding peptides (Co-NTA, LC-MS), AtPEX5C D505H; details: […] protein, 500 nM each peptide, pH 8.0, 4 °C, 1 h, semi-quantitative
T2 construct: made in house; host or cells: E. coli BL21-Gold (DE3)
T2 sequence (Q9FMA3 340-728 D505H): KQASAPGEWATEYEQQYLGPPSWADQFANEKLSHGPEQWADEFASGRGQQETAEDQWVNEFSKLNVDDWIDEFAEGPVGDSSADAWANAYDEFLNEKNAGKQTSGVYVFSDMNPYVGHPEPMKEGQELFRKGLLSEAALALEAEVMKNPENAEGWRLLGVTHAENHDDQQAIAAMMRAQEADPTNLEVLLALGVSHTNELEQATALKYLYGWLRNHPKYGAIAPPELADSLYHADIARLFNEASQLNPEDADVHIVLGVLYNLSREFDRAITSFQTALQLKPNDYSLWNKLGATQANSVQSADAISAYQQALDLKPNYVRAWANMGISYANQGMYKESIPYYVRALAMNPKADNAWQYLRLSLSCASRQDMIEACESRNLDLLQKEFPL
From the text: as §1, §2

[5] = target: T3, AtPEX5C N601A (Arabidopsis thaliana, UniProt Q9FMA3, N601A); assay: Pull down of binding peptides (Co-NTA, LC-MS), AtPEX5C N601A; details: […] protein, 500 nM each peptide, pH 8.0, 4 °C, 1 h, semi-quantitative
T3 construct: made in house; host or cells: E. coli BL21-Gold (DE3)
T3 sequence (Q9FMA3 340-728 N601A): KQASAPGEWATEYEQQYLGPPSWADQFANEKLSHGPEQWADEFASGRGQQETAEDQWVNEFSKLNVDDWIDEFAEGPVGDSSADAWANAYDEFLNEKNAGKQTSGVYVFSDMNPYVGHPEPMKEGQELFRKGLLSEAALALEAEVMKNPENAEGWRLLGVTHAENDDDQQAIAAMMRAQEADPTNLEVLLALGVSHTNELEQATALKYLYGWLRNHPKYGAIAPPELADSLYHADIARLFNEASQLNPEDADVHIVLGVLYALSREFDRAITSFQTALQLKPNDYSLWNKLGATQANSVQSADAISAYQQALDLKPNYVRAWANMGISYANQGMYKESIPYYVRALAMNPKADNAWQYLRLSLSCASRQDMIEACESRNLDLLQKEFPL
From the text: as §1, §2

[6] = target: T4, His6-tagged A. thaliana PEX5 PTS1-binding domain (residues 340-728), wild type (Arabidopsis thaliana, UniProt Q9FMA3 340-728); assay: fluorescence polarisation; fluorescence anisotropy; AtPEX5C or variant serially diluted (from a 40 µM solution) against 100 nM lissamine-labelled peptide tracer; 20 mM HEPES, 150 mM NaCl, pH 7.5; gelatine-blocked 384-well plates; 25 °C, 20 min; fitted to a 1:1 binding model; details: both partners purified
T4 construct: Written 'His6-AtPEX5 (340-728)', in pET-28b; also called AtPEX5C; wild-type AtPEX5C; source: E. coli BL21-Gold (DE3), purified (Co-NTA)
T4 sequence (looked up): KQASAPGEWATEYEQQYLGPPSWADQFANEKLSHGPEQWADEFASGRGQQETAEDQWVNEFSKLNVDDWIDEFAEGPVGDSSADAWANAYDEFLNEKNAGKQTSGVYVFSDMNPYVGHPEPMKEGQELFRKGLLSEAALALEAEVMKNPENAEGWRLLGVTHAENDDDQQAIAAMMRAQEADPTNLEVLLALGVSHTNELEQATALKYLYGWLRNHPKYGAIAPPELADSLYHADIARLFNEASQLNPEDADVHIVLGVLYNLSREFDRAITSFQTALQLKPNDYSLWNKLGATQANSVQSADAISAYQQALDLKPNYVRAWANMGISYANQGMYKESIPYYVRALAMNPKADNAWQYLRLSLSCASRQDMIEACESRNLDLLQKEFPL

[7] = target: T5, AtPEX5C D505H (Arabidopsis thaliana, UniProt Q9FMA3 340-728, D505H); assay: as above; details: both partners purified
T5 construct: Made by site-directed mutagenesis of His6-AtPEX5 (340-728) in pET-28b; also called D505H variant of AtPEX5C; source: E. coli BL21-Gold (DE3), purified (Co-NTA)
T5 sequence (looked up): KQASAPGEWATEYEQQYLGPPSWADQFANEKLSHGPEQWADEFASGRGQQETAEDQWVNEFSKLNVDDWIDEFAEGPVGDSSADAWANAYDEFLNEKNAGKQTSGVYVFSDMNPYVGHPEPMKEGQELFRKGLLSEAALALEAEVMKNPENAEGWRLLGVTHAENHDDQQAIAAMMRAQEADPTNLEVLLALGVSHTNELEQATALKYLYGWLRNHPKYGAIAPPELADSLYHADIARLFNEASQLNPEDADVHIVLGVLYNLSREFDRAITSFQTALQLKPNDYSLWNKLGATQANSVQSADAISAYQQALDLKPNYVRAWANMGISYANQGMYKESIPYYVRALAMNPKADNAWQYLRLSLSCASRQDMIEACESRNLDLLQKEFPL

[8] = target: T6, AtPEX5C N601A (Arabidopsis thaliana, UniProt Q9FMA3 340-728, N601A); assay: as above; details: both partners purified
T6 construct: Made by site-directed mutagenesis of His6-AtPEX5 (340-728) in pET-28b; also called N601A variant; source: E. coli BL21-Gold (DE3), purified (Co-NTA)
T6 sequence (looked up): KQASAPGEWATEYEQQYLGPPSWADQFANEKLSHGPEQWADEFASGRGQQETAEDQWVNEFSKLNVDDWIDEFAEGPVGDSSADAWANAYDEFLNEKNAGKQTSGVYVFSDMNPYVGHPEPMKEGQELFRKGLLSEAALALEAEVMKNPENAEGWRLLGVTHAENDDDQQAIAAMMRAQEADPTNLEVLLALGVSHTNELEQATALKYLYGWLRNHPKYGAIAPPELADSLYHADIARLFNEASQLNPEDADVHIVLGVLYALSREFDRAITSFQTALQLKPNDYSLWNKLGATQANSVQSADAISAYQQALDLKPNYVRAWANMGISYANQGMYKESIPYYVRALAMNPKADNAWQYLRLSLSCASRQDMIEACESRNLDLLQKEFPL

[9] = target: T7, AtPEX5C D505H-N601A (Arabidopsis thaliana, UniProt Q9FMA3 340-728, D505H | N601A); assay: as above; details: both partners purified
T7 construct: Made by site-directed mutagenesis of His6-AtPEX5 (340-728) in pET-28b; source: E. coli BL21-Gold (DE3), purified (Co-NTA)
T7 sequence (looked up): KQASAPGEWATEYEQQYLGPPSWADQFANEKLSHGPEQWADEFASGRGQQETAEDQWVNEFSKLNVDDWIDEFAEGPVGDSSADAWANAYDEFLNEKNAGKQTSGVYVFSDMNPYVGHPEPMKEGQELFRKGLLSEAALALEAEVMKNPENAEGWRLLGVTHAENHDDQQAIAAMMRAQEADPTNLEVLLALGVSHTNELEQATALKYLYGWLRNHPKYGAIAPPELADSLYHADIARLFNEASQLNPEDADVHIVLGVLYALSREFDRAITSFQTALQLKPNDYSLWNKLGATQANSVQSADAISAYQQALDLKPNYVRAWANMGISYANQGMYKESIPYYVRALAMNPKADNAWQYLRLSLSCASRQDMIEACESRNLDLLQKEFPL

[10] = target: T8, AtPEX5C D505H-D507T-N601A (Arabidopsis thaliana, UniProt Q9FMA3 340-728, D505H | D507T | N601A); assay: as above; details: both partners purified
T8 construct: Made by site-directed mutagenesis of His6-AtPEX5 (340-728) in pET-28b; source: E. coli BL21-Gold (DE3), purified (Co-NTA)
T8 sequence (looked up): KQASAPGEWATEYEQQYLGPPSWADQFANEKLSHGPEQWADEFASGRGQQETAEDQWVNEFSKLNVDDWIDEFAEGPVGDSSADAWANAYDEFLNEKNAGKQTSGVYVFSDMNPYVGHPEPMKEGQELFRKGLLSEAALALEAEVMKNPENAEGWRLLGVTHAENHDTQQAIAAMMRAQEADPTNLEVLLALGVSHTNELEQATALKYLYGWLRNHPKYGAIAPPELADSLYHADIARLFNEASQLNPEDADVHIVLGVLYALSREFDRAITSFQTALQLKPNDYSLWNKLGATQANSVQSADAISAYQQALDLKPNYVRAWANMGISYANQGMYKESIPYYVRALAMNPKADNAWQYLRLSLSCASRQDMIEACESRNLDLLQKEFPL

| Molecule | pulled down from library [3] | pulled down from library [4] | pulled down from library [5] | Kd [7] [nM] | Kd [8] [nM] | Kd [9] [nM] | Kd [10] [nM] | other results |
| --- | --- | --- | --- | --- | --- | --- | --- | --- |
| His6-tagged A. thaliana PEX5 PTS1-binding domain (residues 340-728), wild type (from UniProt Q9FMA3 340-728) (domain or fragment) | – | – | – | – | – | – | – | Kd [1]: 2700 nM |
| RFP-PTS1 | – | – | – | – | – | – | – | peroxisomal import: localisation score (1-5) of RFP-PTS1 in P. patens cells expressing PEX5* without GFP-PTS1* (score (scale 1-5)) [2]: 4.32 |
| dansyl-YQSFY [member of dansyl-YQSXX pentapeptide library] | not pulled down | bound | bound | – | – | – | – | – |
| dansyl-YQSYY [member of dansyl-YQSXX pentapeptide library] | not pulled down | bound | bound | – | – | – | – | – |
| B1 | – | – | – | 30 | 22 | 108 | 97 | Kd [6]: 1.1 nM |
| B2 | – | – | – | 960 | 2300 | 603 | 110 | – |
